From the supplement of paper PMC12455559

assay: purified protein yield per well (BCA); higher = higher soluble expression
In short: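 Candidate enzymes were made in 2 mL autoinduction cultures of E. coli C41(DE3) with 100 µg/mL kanamycin, at 37 °C for 2 h and then 18 °C for 40 h, and purified with Ni-charged magnetic beads and SUMO protease cleavage. The Pierce Rapid Gold BCA kit gave purified protein yield per well. Values lower than 25 ug (0.1 mg/mL) are below the detection threshold.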

Purified protein yield per well, < 25 µg:
MRSDCSPPWRWWPGAALAPAANAAAPAHPVRLAANPYERGPAPTEASITAEKGPFAIERIDVPAGSGPGFNKGTIYAPTDLSQGTFGAIAVSPGFVSPQAWIDWYGPRLATQGFVVMTLETNSLFDVPAARGEQLLAALDYMTGGSRVKDRIDASRLAVMGHSMGGGGTLEAADDRPALQAAVPLAPWNTNYDWKNVRVPTMIMGADNDAIAPADSMAESYYDNLTSVPEKAYLELKNAGHMTFNSPNTTIAKYTIAWMKRFVDDDARYERFLCPEPAPGATIAQYEGTCPTG [TEP141]
MRSDMTPEPEGTVAKAGWARSQPRPATRAVMAVAAVLALLAGLLAIGQASARSAPSAASPATTQRGPDPTVGMIEATRGPFATAQVAMPTGHGFGGGMIYYPTDTSQGTWGVLAIVPGYSALFADEEAWMGPWLSSFGFVVVGVETNTRTDSDSQRAADLLAALDYLTTQSPVRTQVDPARMAVLGHSAGGAGAIEAAEQRPSLRALIGLAPGFPGQGLSMAADTVPALIIGGQNDGTVTPSYLSSLYGTLPASTQSAFAQIAGADHVYYTHPNNVEMKLIIPWLKVFVDSDTRYTQFLCPSLPDPSTISAYQPKCPYIPPGGSSSPSSSSSSSSAPPPNSAPLHAVGAAKCLDVPNSSTTAGTQLQIYTCSNGANQLITHTGSNQLTVYSSTMCLDANNKGTTNGTKVIIWPCNGQSNQQWNLNPNGTITSAASGLCLDVTGASTANGALVQLWTCNGGSNQQWHLG [TEP169]
MRSSVTQVPACKGAETSEARPRTGSRPVGLRAVVVAVVAGLIAALVSAQPVSARPAPARPGAAQDNPYERGPDPTVGSVAAQRGTFATAEMNVSPGNGFNGGKIYYPTDTSQGTWGAVAAVPGFTARWAAEGAWMGHWLASFGFVVIGIDTNSPNDYDTARGTQLLAALDYLTQKSPVRDRVDPDRLGVIGHSMGGGGAISAAVRRPSLKAAVPLAPFSPSQDLSTLRVPTMIMGARDDGTVTPSYLDGLYARTPAATQSAFIELTSGGHGFPTWGNSHVTRRMIPWLKIFIDNDTRYTQFLCPSPADRSNISRWQTKCPYVPPGGTTPPPSGGQVVGAGSARCLDVPSQTNGTQVRLWDCLDRAGQKWTRTEAAELRVHGGKCLDAEASGTSPGTRVVIWDCHGGQNQRWNIGTNGTITSTRSGLCLDAYNSGTANGTQVVLWNCNGGANQRWTFR [DP042]
MRSTSTTPTASSVSGAGAFAISSATVGGGNGFGSATIYFPTDTSQGTFGGLAVSPGFTETQSALRWWAQRLATHGFVVINISTNSTFDNPSSRATQLQNALNYLVNTSSVRTRVDRTRLGVSGHSMGGGGTLEAARNNTALQAAIPLMPWDQTKSFPGILTPTMIVAGQNDTVARPSSHAIPFYNSIPDSSEKVYLELAGAGHNASNSTNPTISLFGVSWAKRYIDNGTRYEQFICPGGGSGISSYRQT [ESM152]
MSATRGTFATAQLSVPAGNGFGGGVIYYPTDTSQGTFGGVAIVPGYSALFANEEAWMGPWLASFGFVVIGIETNSRTDGADARATQLLAALDYLTQRSSVRDRVDSSRLSVVGHSAGGAGVILATGQRPSLKAAVGLAPGSPTGNLSLANDRVPMMFISGQRDTTVTQSYLNGLYTTLPASTPSAWVEITGVDHLFATRANTTEMRTLIPWLKIFVDNDTRYTQFLCPLMDSSNISMYRNKCPYVPPGGPSPSPSPSPSPSPSPSPSPSPSPSPSPSPSPSPSPSPSPSPSAGACTASYRTTNSWPGGHQGEVTVTAGGSAISGWTVRWTLGSGQTVSQVWNGTLSVSGSTVTVTNASYNGSLPASGSTTFGFLGTGTASAPSLTCTSRP [ESM002]
MSGFGGGTIYYPSGTTGTMAAIVVIPGYVSSQSSIEWWGPRLASNGFVVMTIDTNATTDQPPARARQINAALDYLIAQNRASGSPVNGMIDTSRLGVVGWSMGGGGTLRVASEGRIKAAIPLAPWDTTTFRNVKAPTLIFACESDTIAPVRNHASPFYNQVPTSIPKAFVQLNRGNHYCANGGNAFNADLSRLGVSWMKRFLDNDRRFSQFLCGPNHTSDRDISEYRGNCPY [TEP104]
MTVPPGNGFNGGKIYYPTDTSLGTWAAVAAVPGYTARWDAEGAWMGPWLASFGFVVIGIDTNSPTDYDTARGTQLLAALDYLTQKSPVRDRVDPNRLGVLGHSMGGGGAISAAERRPSLKAALPLAPFSPSQNLSSLRVPTMIMGARDDGTVTPSYLNGLYGSMPTATQSAYIELTSGGHGFPTWGNSNVTRRTIPWLKIFLDNDTRYTQFLCPSLADSSGISRSQTKCPYVPPGGTTTPPSGGQIVGAGSGRCLDVPNASQTNGAQVQLWDCSGNVNQKWARTDAGELRVYGSKCLDAEGSGTSPGTRVIVWDCHGGQNQRWNVNTNGTITSVGSGLCLDTNGGGTGNGAQTVLGNCNGAPTQRWTVR [ESM105]
MVSGTATATPAATAAHPVRAAANPYERGPAPTVASVEAPLGPYAVSRITVARSSVSGFGGGTVHYPTSTADGTFGAVAVSPGFTGTQSSIAWYGPRLASQGFVVLTIDTLTGLDQPASRGRQLLAALDYLTGESAVRGRIDRTRLGVMGHSMGGGGSLEAAKSRTSLKAAIPLTGWNLDTTWPEVRTPTLVVGADGDTVAPVAAHSEPFYASLPGTLDKAYLELKGAVHRTPITANTTIAKYSVSWLKRFIDNDTRYERFLCPLPAPGPTIAEYRGNCPHT [TEP118]
MVSYSPRYKAVAFTVAAGLVGGGLAGLAPNRHERGPDPTRALLEAPRGPLATARTVVPRAEAAGYGGGTIYHPAEMRTGETYGAVAIIPGRNGPQSGMSWYGPRLASHGFIVFTIDALRPLDRPPARGAQLQAALQQLAVRSPVATHVDAGRLAVMGHSLGGAGALEAAKARPGLRAAIPLTPSDVAGPDFSGVRVPTLILAAEKDTVAPLGRHARKFYRAIPRGTEKAYVELAGATHGFPKLPHPTVARYTIAWLKRWVDGDRRYDRVLCPSGRREPAVSFQRDTCPHD [TEP187]
MYYPTTTSVGTFGAVAIAPGYTARESSIAWLGPRLASQGFVVFTIDTITTQDQPSSRGDQLRAALSYVATESSVRTRVDGSRLAVMGHSMGGGGSLQAAKDDPSIRAVIPMTPYDLDKTWPEVVAPTLVIGAEDDTVAPVSRHAEPFYESLTQASEKAYLELRGASHFAPNVSNTTIASASIAWLKRHVDADTRYERFICPAPAVSLQISEYRSTC [TEP079]
NNPAPTPTPTPTPGTPSAYQRGPAPSVSFLQASRGDLSVRTSRVSSFTSGFGGGTIHYPTGTTGTMAAIVVIPGYVSAESSIEWWGPKLASYGFVVMTIDTNSGFDQPPSRARQINSALDYLVSQNSSSRSPVRGMIDTNRLGVVGWSMGGGGTLRVAEEGRIKAAIPLAPWDTTNFRDNYTPTLIFACQSDVIAPVNQHASPFYNQIPSSTDKAFVELSGGSHYCGNGGGVYNNVLGRLGVSWMKRHLDQDTRYDQFLCGPNHESDSRISEYRGNCSN [ESM126]
NPYERGPAPTTASLEASRGPFATSSFTVSRPSGYGAGTVYYPTNAGGTVGAIAIVPGFLARQSSINWWGPRLASHGFVVITIDTNSTFDQPTSRSRQQLAALDQVAALARTSSSPIYNRVDTTRMGVMGWSMGGGGTLISAQNRPSLKAAAPQAPWNNSTNFSSVTVPTLILACESDSTAPVNQHASPFYNSMSRNSKQYLEINNGSHSCANSGNSNQPLIGKRGVAWMKRFMDNDTRYTSFACANPNSTRVSEFRTANCS [ESM076]
NTNVPSQACNLTNANGCDSIAILNLTINQADTLYTNIITCDNYTWDGTTYTNSGIYNNVYTNSNGCDSILLNLITIPGPFSVSNIDESSGIRNGLDYDGATIYYPDNGNYLSSIVIVPGFMNTELTVQNWGPFLASYGIVTMTIGTNALTDSEFQRRDALIDAIISLKDENNRSLSPLFGRLNTSSISVGGFSKGGGGAQLVASLDSSIKAIVALYPFIDNPIVSDFDHNIPTFIISGQLDVIAPPAQHADIHYDLIPNSTKKLKYELSVGTHDALSGPYGGLNQVGERVLSFLGLFLENDSCYCPLLDITPSLSSRSKSAPLTKSLMILPAATDALRAGSKSTSAKLAEAVA [TEP057]
PWTSYSAGATVYYPRTATAPFSAIVFMQPYTGTQAMNYAWGPWFASHGIVYVNYDSTTTLDTVDSRATQQMNAINALKNENNRSASPLYRKLDTSRIGVMGWSMGGGASWINSANSSIKTAMSLAGHSLTAVSIYKSGRYTKCPTMIFSGLLDTTYLGGMGQSEGVYRNIPSGIAKIHYEVRSAGHMAWGSPTSASSNVAKIALAFQKTFLDGDTRWAAYLTQPSDASTWNTASLPSTGGTTPDYPWWYWWR [TEP072]
